A short description of data set [1]: Biodistribution in non-tumor bearing CD-1 mice at 4 h post-injection (FIGS. 12-13). The note with it: female, CD-1, mouse, in vivo, total radioactivity. As for the experimental part:
FIG. 12 is a bar graph 1200 showing the biodistribution (% ID/g)(y-axis) for various organs (x-axis). The biodistribution of ^203Pb-TCMCTATE and ^203Pb-DOTAMTATE is shown for non-tumor bearing mice done at 4 h post-injection. The biodistribution studies of ^203Pb-TCMCTATE and ^203Pb-DOTAMTATE are completed in non-tumor bearing mice (CD-1 mice, Female, 20 g wt. 4-5 weeks) at 4 h post-injection of the cancer targeting compositions.
In comparison, FIG. 13 is a graph 1300 (similar to the graph of FIG. 12), except that the biodistribution study is of ^203Pb-acetate (a lead radioisotope without a chelator or targeting moiety) in non-tumor bearing mice done at 4 h post-injection. A higher accumulation of isotope is observed in blood, kidney, liver and lung compared to the chelated radioisotopes of FIG. 12. The biodistribution studies of the ^203Pb-acetate indicate retention of the isotope in bone marrow, blood and liver after 4 h post-injection.

Data set [2] can be described thus: ^203Pb-DOTAMTATE biodistribution in athymic nude mice (FIG. 16). The format is in vivo. The note with it: female athymic nude mice, 10 μCi iv, 4, 24 and 48 hours. As for the experimental part: FIG. 16 is a bar graph 1600 showing the biodistribution results (% ID/g) of ^203Pb-DOTAMTATE in various organs (y-axis). The biodistribution data are acquired at 4 h, 24 h, and 48 h post-injection. […] There is also accumulation of the composition observed in kidneys and bladder due elimination of the composition through renal clearance. As may be seen from these figures, the composition is washed out from all measured organs over time in non-tumor bearing mice.
Female athymic nude mice (˜20 g) are injected with a single dose of ^203Pb-DOTAMTATE. Specifically, 10 μCi of ^203Pb-DOTAMTATE is diluted in PBS and 100 μl is administered to the mice via intravenous injection. The animals are sacrificed at predetermined time points of 4 hr, 24 hours and 48 hours post drug injection. Tissues are collected from each animal and evaluated for amount of radioactive material in each organ by auto gamma counter. Specifically, organs are harvested, weighed and transferred to polypropylene tubes. The tubes are placed in a calibrated Wizard2 γ-counter (PerkinElmer, Shelton, Conn.) and counted for three minutes (204-274 keV). A standard consisting of one-twentieth of the injection volume is counted with each time point. The background is automatically subtracted from the counts. The standard is also used for decay correction. % ID/g is calculated for each organ collected.

Data set [3] can be described thus: Side by side biodistribution of ^203Pb- and ^212Pb-DOTAMTATE in CD-1 mice (FIG. 32). The note with it: female CD-1 mice, 10 μCi iv, 4 hr and 24 hours. In kind it is in vivo. As for the experimental part:
Female CD-1 mice (˜20 g) are injected with a single dose of ^203Pb-DOTAMTATE or ^212Pb-DOTAMTATE. Specifically, 10 μCi of ^203Pb-DOTAMTATE or ^212Pb-DOTAMTATE is diluted in saline and 100 μl is administered to the mice via intravenous injection. The animals are sacrificed at predetermined time points of 4 hr and 24 hours post drug injection. Tissues are collected from each animal and evaluated for amount of radioactive material in each organ by auto gamma counter. Specifically, organs are harvested, weighed and transferred to 12×55 mm polypropylene tubes. The tubes are placed in a calibrated Wizard2 γ-counter (PerkinElmer, Shelton, Conn.) and counted for three minutes (204-274 keV). A standard consisting of one-twentieth of the injection volume is counted with each time point. The background is automatically subtracted from the counts. The standard is also used for decay correction. % ID/g is calculated for each organ collected, wherein “% ID” means percent injection dosage.

The nature of data set [4]: Dosimetry and bio-distribution of ^203Pb-DOTAMTATE in patients with somatostatin expressing neuroendocrine tumors (SPECT-CT). The note with it: human, in vivo. In kind it is in vivo, human. As for the experimental part: Total of 6 patients are enrolled in the first-in-human open-label, single-dose, dosimetry and bio-distribution of ^203Pb-DOTAMTATE.
All patients (1 female and 5 male) receive an average dose of 4.94 (4.66-5.26) mCi of ^203Pb-DOTAM-TATE and undergo 1 hour, 4 hour, 24 hour and 48 hour post injection SPECT-CT scans. Ethnicity of all 6 patients is Caucasian.
Pharmacokinetic data from ^203Pb-DOTAMTATE imaging are used to calculate the absorbed dose from ^203Pb-DOTAMTATE imaging. The data is then extrapolated to calculate the expected tissue absorbed doses following the administration of ^212Pb-DOTAMTATE for future Targeted Alpha particle Therapy (TAT).

Data set [5] in a line: Radiochemical stability by radio-HPLC after labeling, incubation in PBS buffer. The note with it: room temperature.
Data set [6] can be described thus: in vivo. Further details: species or system mice. As for the experimental part: ^212Pb-DOTATOC is prepared based on activity needed at time of injection. 4.1 ng of peptide per 10 μCi of ^212Pb into a tube is added. The mixture is incubated for 10 minutes at 50° C. with shaking. ITLC (Instant thin layer chromatography) is used to verify that chelation is >95%. 100 μl of ^212Pb-DOTATOC is intravenously injected into the tail of each mouse. An auto gamma counter is used to determine the counts of each organ and control tube.

[7] abbreviates: female, CD-1, mouse, iv, 10 uCi, total radioactivity.

The structures appear in SMILES notation.

As to `C[C@@H](O)[C@H](NC(=O)[C@@H]1CSSC[C@H](NC(=O)[C@@H](Cc2ccccc2)NC(=O)CN2CCN(CC(N)=O)CCN(CC(N)=O)CCN(CC(N)=O)CC2)C(=O)N[C@@H](Cc2ccc(O)cc2)C(=O)N[C@H](Cc2c[nH]c3ccccc23)C(=O)N[C@@H](CCCCN)C(=O)N[C@@H]([C@@H](C)O)C(=O)N1)C(=O)O` [^203Pb-DOTAMTATE, ((4R,7S,10S,13R,16S,19R)-13-((1H-indol-3-yl)methyl)-10-(4-aminobutyl)-16-(4-hydroxybenzyl)-7-((R)-1-hydroxyethyl)-6,9,12,15,18-pentaoxo-19-((R)-3-phenyl-2-(2-(4,7,10-tris(2-amino-2-oxoethyl)-1,4,7,10-tetraazacyclododecan-1-yl)acetamido)propanamido)-1,2-dithia-5,8,11,14,17-pentaazacycloicosane-4-carbonyl)-L-threonine chelated to M, metal not drawn], in data set [1] (kidney retention), the tissue uptake at 4 h stood at 9.79 ± 2.9 %ID/g. Also, in data set [1] (retention in other organs (than kidneys)), the tissue uptake at 4 h was under 2 %ID/g. Also, the organ uptake result in data set [2] is “high initial uptake of the drug in the pancreas and kidneys that continues to decrease over time”. The “organ uptake compared with ^212Pb-DOTAMTATE in all critical organs” value in data set [3] is recorded as “not significantly different”. In addition, in data set [4], the “absorbed dose, kidneys, average, for ^212Pb” value is given as 19 mGy/MBq; the “absorbed dose, liver, average, for ^212Pb” value is reported as 17 mGy/MBq; the “dose to bone marrow” value worked out at 1.6 Gy; the “dose to heart wall” value is reported as 3.7 Gy. For the same compound, in data set [4], the dose to lungs worked out at 2.5 Gy, the “dose to osteogenic cells” value was found to be 0.5 Gy and the dose to spleen was determined as 31 Gy. For the same compound, the “radiochemical stability (radiochemical yield, no free ^203Pb peak in radio-HPLC)” value in data set [5] (up to at least 24 h post-labeling) is reported as at least 98%.

Consider `C[C@@H](O)[C@@H]1NC(=O)[C@H](CCCCN)NC(=O)[C@@H](Cc2c[nH]c3ccccc23)NC(=O)[C@H](Cc2ccc(O)cc2)NC(=O)[C@@H](NC(=O)[C@@H](Cc2ccccc2)NC(=O)CN2CCN(CC(=O)O)CCN(CC(=O)O)CCN(CC(=O)O)CC2)CSSC[C@@H](C(=O)N[C@H](CO)[C@@H](C)O)NC1=O` [^212Pb-DOTATOC, metal not drawn], for which, in data set [6] (setting [7]), the tissue uptake at 0.5 h is 19 %ID/g and the tissue uptake at 4 h was determined as 22 %ID/g. Moreover, in data set [6] (mouse), the “drug in all other organs” value was “nearly undetectable”.

As to `C[C@@H](O)[C@H](NC(=O)[C@@H]1CSSC[C@H](NC(=O)[C@@H](Cc2ccccc2)NC(=S)Nc2ccc(C[C@H]3CN(CC(N)=O)CCN(CC(N)=O)CCN(CC(N)=O)CCN3CC(N)=O)cc2)C(=O)N[C@@H](Cc2ccc(O)cc2)C(=O)N[C@H](Cc2c[nH]c3ccccc23)C(=O)N[C@@H](CCCCN)C(=O)N[C@@H]([C@@H](C)O)C(=O)N1)C(=O)O` [^203Pb-TCMCTATE, ((4R,7S,10S,13R,16S,19R)-13-((1H-indol-3-yl)methyl)-10-(4-aminobutyl)-16-(4-hydroxybenzyl)-7-((R)-1-hydroxyethyl)-6,9,12,15,18-pentaoxo-19-((R)-3-phenyl-2-(3-(4-(((S)-1,4,7,10-tetrakis(2-amino-2-oxoethyl)-1,4,7,10-tetraazacyclododecan-2-yl)methyl)phenyl)thioureido)propanamido)-1,2-dithia-5,8,11,14,17-pentaazacycloicosane-4-carbonyl)-L-threonine chelated to M, metal not drawn], the tissue uptake at 4 h is 23.5 ± 1.54 %ID/g in data set [1] (non-tumor bearing CD-1 mice, 4 h post-injection, read-out: kidney retention) and under 2 %ID/g in data set [1] (non-tumor bearing CD-1 mice, 4 h post-injection, read-out: retention in other organs (than kidneys)). In data set [5] (up to 18 h post-labeling), the “radiochemical stability (radio-HPLC)” value is on record as at least 96%.
